B1: sodium/iodide symporter (NIS), wild type, cerulean- or citrine-tagged [human] / itself (parent)
chain: MEAVETGERPTFGAWDYGVFALMLLVSTGIGLWVGLARGGQRSAEDFFTGGRRLAALPVGLSLSASFMSAVQVLGVPSEAYRYGLKFLWMCLGQLLNSVLTALLFMPVFYRLGLTSTYEYLEMRFSRAVRLCGTLQYIVATMLYTGIVIYAPALILNQVTGLDIWASLLSTGIICTFYTAVGGMKAVVWTDVFQVVVMLSGFWVVLARGVMLVGGPRQVLTLAQNHSRINLMDFNPDPRSRYTFWTFVVGGTLVWLSMYGVNQAQVQRYVACRTEKQAKLALLINQVGLFLIVSSAACCGIVMFVFYTDCDPLLLGRISAPDQYMPLLVLDIFEDLPGVPGLFLACAYSGTLSTASTSINAMAAVTVEDLIKPRLRSLAPRKLVIISKGLSLIYGSACLTVAALSSLLGGGVLQGSFTVMGVISGPLLGAFILGMFLPACNTPGVLAGLGAGLALSLWVALGATLYPPSEQTMRVLPSSAARCVALSVNASGLLDPALLPANDSSRAPSSGMDASRPALADSFYAISYLYYGALGTLTTVLCGALISCLTGPTKRSTLAPGLLWWDLARQTASVAPKEEVAILDDNLVKGPEELPTGNKKPPGFLPTNEDRLFFLGQKELEGAGSWTPCVGHDGGRDQQETNL

Variants of: B1
Test: FRET
Details: with itself, n = 2, minimum of 20 cells analyzed in each n, read off a plot

response (arbitrary units) (HeLa cells, parent: 20)	response (arbitrary units) (SW1736 cells, parent: 0)	Variant
0	-70	chain 1 D237A
120	30	chain 1 A525F

Reference: article PMC6797079
